Laboratory results as given in US20180185502A1, “IMMOBILIZATION OF BIOMOLECULES BY SELF-ASSEMBLED NANOSTRUCTURES” (priority 2015, published 2018).

Key:
Type in all cases: biochemical
R. rubrum RubisCO [1] = target: T1, R. rubrum RubisCO (Rhodospirillum rubrum, UniProt P04718); test: RubisCO functional assay (activity of free, nanotube-bound or monomer-exposed enzyme); conditions: initial functional assays
T1 sequence (P04718 1-466): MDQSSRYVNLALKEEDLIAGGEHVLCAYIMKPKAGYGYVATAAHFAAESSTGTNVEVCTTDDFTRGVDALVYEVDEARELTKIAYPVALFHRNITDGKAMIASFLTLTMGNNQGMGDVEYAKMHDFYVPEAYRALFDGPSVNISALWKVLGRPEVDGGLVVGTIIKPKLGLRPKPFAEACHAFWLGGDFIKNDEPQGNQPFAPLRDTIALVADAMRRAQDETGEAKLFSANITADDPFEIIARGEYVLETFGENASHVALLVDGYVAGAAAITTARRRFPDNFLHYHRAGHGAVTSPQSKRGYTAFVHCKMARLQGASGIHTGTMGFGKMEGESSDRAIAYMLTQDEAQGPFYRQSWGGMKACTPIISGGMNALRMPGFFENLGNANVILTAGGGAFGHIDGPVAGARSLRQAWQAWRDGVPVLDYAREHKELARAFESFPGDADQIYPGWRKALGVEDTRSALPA

R. rubrum RubisCO [2] = target: T1, R. rubrum RubisCO; test: as above
Method: Although the samples were identical in purity and composition, the resultant activity of the bound RubisCO varied. […] Thus, by pelleting the nanotube by ultracentrifugation, followed by additional washing of the pellet, prior to adding the enzyme, the activity increased dramatically to 67%.
Nanotubes for this experiment were set up with 10 mM monomer in 1 mL buffer and aged for ˜5 days at room temperature. Nanotubes were then isolated using ultracentrifugation and re-suspended back in 1 mL buffer with 0.1 mg of R. rubrum RubisCO. This suspension was incubated at 1° C. for 15 hrs prior to ultracentrifugation and re-suspension of the final nanotubes in 1 mL buffer.

R. rubrum RubisCO [3] = target: T1, R. rubrum RubisCO; test: Stability of nanotube-RubisCO co-assembly to proteolysis by subtilisin over 45 minutes; conditions: within 45 minutes; FIG. 5
Method: Subtilisin is a non-specific, serine protease capable of rapidly degrading proteins by amide bond cleavage. The stability of the nanotube-RubisCO co-assembly to proteolysis by subtilisin was evaluated over 45 minutes and compared to the free R. rubrum RubisCO. […] In contrast, the bound enzyme retains 75% of its activity upon exposure to the protease over this time range.

[4] = Subtilisin (0.5 μg/ml; 30° C./1 hr)
[5] = RubisCO alone or with pre-formed nanotubes added
[6] = pre-formed nanotubes from 10 mM monomer aged ~5 days, isolated by ultracentrifugation, re-suspended with 0.1 mg RubisCO in 1 mL buffer, 15 hrs

Pure R. rubrum RubisCO: RubisCO dimer from the bacterium Rhodospirillum rubrum, a CO2-fixing enzyme, free form
% Activity retained (R. rubrum RubisCO [1]; Heat (65° C./10 min)): 77%
Activity (R. rubrum RubisCO [1]; Heat (65° C./10 min)): 2248 nmol/min/mg
% Activity retained (R. rubrum RubisCO [1]; [4]): 7%
Activity (R. rubrum RubisCO [1]; [4]): 212 nmol/min/mg
Activity (R. rubrum RubisCO [1]; untreated or no treatment stated): 2903 nmol/min/mg
Activity (R. rubrum RubisCO [1]; untreated or no treatment stated, listed as 0.1 mg/ml R. rubrum RubisCO (after 80K spin)): 3007 nmol/min/mg
% Activity retained (R. rubrum RubisCO [1]; untreated or no treatment stated, relative to pure R. rubrum RubisCO): 100%
% Activity retained (R. rubrum RubisCO [1]; untreated or no treatment stated, relative to pure R. rubrum RubisCO, listed as 0.1 mg/ml R. rubrum RubisCO (after 80K spin)): 104%
% Activity retained (R. rubrum RubisCO [2]; [5]): 100%
Activity (R. rubrum RubisCO [2]; [5]): 3405 nmol/min/mg
% Activity retained (R. rubrum RubisCO [2]; [6]): 100%
Activity (R. rubrum RubisCO [2]; [6]): 1803 nmol/min/mg
loss of activity in presence of subtilisin (R. rubrum RubisCO [3]): 80%
